Test results reported in patent US20100135951.

Tested on: Ser90 mutant DDX3

Substance: GSK3
- phosphorylation (32P incorporation): GSK3 fails to phosphorylate DDX3 with a point mutation at Ser90
